Measurements published in the supplement of paper PMC10567573.

B1: CLCN6 (parent)
chain: TGLVGLFVDFFVRLFTQLKFGVVQ
B2: ZNF8 (parent)
chain: RIHTGERPYMCKECGKAFSQNSSL

Variants of: B1
Test: protein stability index of a GFP-peptide fusion (GPS, HEK-293T) (PSI 1-6); higher = more stable
Settings: c terminus: a fixed tail appended
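Also: lentivirally expressed fusions sorted by FACS into six bins by GFP to DsRed ratio, PSI derived from sequencing read proportions per bin multiplied by bin number.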

Variant | protein stability index
TGLVGLFVDFFVRLFTQLKQGVVQ | 3.83
TGLVGLFVDFFVRLFTQLKHGVVQ | 2.58
TGLVGLFVDFFVRLFTQLKYGVVQ | 2.55
TGLVGLFVDFFVRLFTQLKIGVVQ | 2.97
TGLVGLFVDFFVRLFTQLKRGVVQ | 4.55
TGLVGLFVDFFVRLFTQLKLGVVQ | 2.96
TGLVGLFVDFFVRLFTQLKCGVVQ | 3.79
TGLVGSFVDFFVRLFTQLKFGVVQ | 2.99
TGLVGEFVDFFVRLFTQLKFGVVQ | 2.25
TGLVGFFVDFFVRLFTQLKFGVVQ | 2.4
TGLVGMFVDFFVRLFTQLKFGVVQ | 2.93
TGLVGKFVDFFVRLFTQLKFGVVQ | 2.44
TGLVGRFVDFFVRLFTQLKFGVVQ | 3.73
TGLVGLFVDFFVQLFTQLKFGVVQ | 1.81
TGLVGLFVDFFVFLFTQLKFGVVQ | 2.96
TGLVGLFVDFFVVLFTQLKFGVVQ | 1.76
TGLVGLFVDFFVHLFTQLKFGVVQ | 2.22
TGLVGLFVDFFVCLFTQLKFGVVQ | 2.09
TGLVGLFVDFFVNLFTQLKFGVVQ | 1.91
TGLVGLFVDFFVTLFTQLKFGVVQ | 2.19
TGLVGLFVDFFVYLFTQLKFGVVQ | 2.62
TGLVGLFVDFFVALFTQLKFGVVQ | 2.04
TGLVGLFVDFFVELFTQLKFGVVQ | 2.34
TGLVGLFVDFFVRLFTQLKFGHVQ | 1.92
TGLVGLFVDFFVRLFTQLKFGGVQ | 1.72

Variant | protein stability index
TGLVGLFVDFFVRLFTQLKFGTVQ | 2.18
TGLVGLFVDFFVRLFTQLKFGPVQ | 2.07
TGLVGLFVDFFVRLFTQLKFGFVQ | 2.6
TGLVGLFVDFFVRLFTQLKFGAVQ | 1.77
TGLVGLFVDFFVRLFTQLKFGMVQ | 2.58
TGLVGLFVDFFVRLFTWLKFGVVQ | 3.5
TGLVGLFVDFFVRLFTFLKFGVVQ | 2.44
TGLVGLFVDFFVRLFTMLKFGVVQ | 2.09
TGLVGLFVDFFVRLFTRLKFGVVQ | 3.5
TGLVGLFVDFFVRLFTELKFGVVQ | 2
TGLVGLFVDFFVRLFTVLKFGVVQ | 2.14
TGLVGLFVDFFVRLFTSLKFGVVQ | 2.81
TGLVGLFVDFFVRLFTYLKFGVVQ | 2.06
TGLVGLFVDFFVRLFTALKFGVVQ | 2.38
TKLVGLFVDFFVRLFTQLKFGVVQ | 2.53
TSLVGLFVDFFVRLFTQLKFGVVQ | 1.96
TPLVGLFVDFFVRLFTQLKFGVVQ | 1.67
TDLVGLFVDFFVRLFTQLKFGVVQ | 1.64
THLVGLFVDFFVRLFTQLKFGVVQ | 2.34
TLLVGLFVDFFVRLFTQLKFGVVQ | 3.27
TMLVGLFVDFFVRLFTQLKFGVVQ | 2.66
TFLVGLFVDFFVRLFTQLKFGVVQ | 3.79
TGLVGLFVDFFVRLFTQLSFGVVQ | 2.92
TGLVGLFVDFFVRLFTQLYFGVVQ | 2.85
TGLVGLFVDFFVRLFTQLLFGVVQ | 2.56

Variant | protein stability index
TGLVGLFVDFFVRLFTQLTFGVVQ | 2.33
TGLVGLFVDFFVRLFTQLMFGVVQ | 3.13
TGLVGLFVDFFVRLFTQLDFGVVQ | 3.05
TGLVGLFVDFFVRLFTQLVFGVVQ | 2.66
TGLVGLFVDFFVRLFTQLFFGVVQ | 1.89
TGLVGLFVDFAVRLFTQLKFGVVQ | 2.84
TGLVGLFVDFKVRLFTQLKFGVVQ | 3.06
TGLVGLFVDFQVRLFTQLKFGVVQ | 3.25
TGLVGLFVDFHVRLFTQLKFGVVQ | 2.21
TGLVGLFVDFEVRLFTQLKFGVVQ | 2.4
TGLVGLFVDFGVRLFTQLKFGVVQ | 1.76
TGLVGLFVDFCVRLFTQLKFGVVQ | 2.93
TGLVGLFVDFVVRLFTQLKFGVVQ | 2.65
TGLSGLFVDFFVRLFTQLKFGVVQ | 2.63
TGLYGLFVDFFVRLFTQLKFGVVQ | 2.07
TGLWGLFVDFFVRLFTQLKFGVVQ | 3.63
TGLTGLFVDFFVRLFTQLKFGVVQ | 2.38
TGLAGLFVDFFVRLFTQLKFGVVQ | 1.97
PGLVGLFVDFFVRLFTQLKFGVVQ | 2.59
GGLVGLFVDFFVRLFTQLKFGVVQ | 2.12
DGLVGLFVDFFVRLFTQLKFGVVQ | 2.39
RGLVGLFVDFFVRLFTQLKFGVVQ | 3.29
FGLVGLFVDFFVRLFTQLKFGVVQ | 2.1
YGLVGLFVDFFVRLFTQLKFGVVQ | 2.82
QGLVGLFVDFFVRLFTQLKFGVVQ | 2.17

Variant | protein stability index
WGLVGLFVDFFVRLFTQLKFGVVQ | 1.73
TGLVGLFVDFFVRLWTQLKFGVVQ | 3.46
TGLVGLFVDFFVRLQTQLKFGVVQ | 3.33
TGLVGLFVDFFVRLGTQLKFGVVQ | 2.95
TGLVGLFVDFFVRLMTQLKFGVVQ | 1.77
TGLVGLFVDFFVRLYTQLKFGVVQ | 2.73
TGLVGLFVDFFVRLFTQLKFDVVQ | 2.38
TGLVGLFVDFFVRLFTQLKFQVVQ | 2.77
TGLVGLFVDFFVRLFTQLKFPVVQ | 2.35
TGLVGLFVDFFVRLFTQLKFFVVQ | 3.79
TGLVGLFVDFFVRLFTQNKFGVVQ | 3.66
TGLVGLFVDFFVRLFTQGKFGVVQ | 2.21
TGLVGLFVDFFVRLFTQFKFGVVQ | 2.46
TGLVGLFVDFFVRLFTQAKFGVVQ | 1.97
TGLVGLFVDFFVRLFTQWKFGVVQ | 1.66
TGLVGLFVDFFVRLFTQRKFGVVQ | 2.74
TGLVGLFVDFFVRLFTQSKFGVVQ | 2.03
TGLVGLFVDTFVRLFTQLKFGVVQ | 2
TGLVGLFVDKFVRLFTQLKFGVVQ | 1.98
TGLVGLFVDHFVRLFTQLKFGVVQ | 1.61
TGLVGLFVDDFVRLFTQLKFGVVQ | 2.75
TGLVGLFVDYFVRLFTQLKFGVVQ | 2.27
TGLVGLFVDSFVRLFTQLKFGVVQ | 1.8
TGLVGLFVDAFVRLFTQLKFGVVQ | 2.34
TGLVGLFVDQFVRLFTQLKFGVVQ | 1.85

Variant | protein stability index
TGLVGLFVIFFVRLFTQLKFGVVQ | 2.68
TGLVGLFVQFFVRLFTQLKFGVVQ | 2.24
TGLVGLFVPFFVRLFTQLKFGVVQ | 1.92
TGLVGLFVCFFVRLFTQLKFGVVQ | 1.25
TGLVGLFVWFFVRLFTQLKFGVVQ | 1.51
TGLVGLFVFFFVRLFTQLKFGVVQ | 2.17
TGLVGLFVLFFVRLFTQLKFGVVQ | 1.86
TGLVGLFVYFFVRLFTQLKFGVVQ | 1.89
TGLVGLFVEFFVRLFTQLKFGVVQ | 2.12
TGLVGLFVDFFVRLFWQLKFGVVQ | 3.32
TGLVGLFVDFFVRLFAQLKFGVVQ | 2.43
TGLVGLFVDFFVRLFRQLKFGVVQ | 3.85
TGLVGLFVDFFVRLFHQLKFGVVQ | 2.78
TGLVGLFVDFFVRLFDQLKFGVVQ | 2.42
TGLVGLFVDFFVRLFQQLKFGVVQ | 3
TGLVGLFVDFFVRLFFQLKFGVVQ | 2.04
TGLVGLFVDFFVRLFSQLKFGVVQ | 2.91
TGLVGLFVDFFVRLFYQLKFGVVQ | 1.98
TGLVCLFVDFFVRLFTQLKFGVVQ | 2.42
TGLVDLFVDFFVRLFTQLKFGVVQ | 2.47
TGLVFLFVDFFVRLFTQLKFGVVQ | 1.72
TGLVQLFVDFFVRLFTQLKFGVVQ | 2.21
TGLVELFVDFFVRLFTQLKFGVVQ | 1.78
TGLVWLFVDFFVRLFTQLKFGVVQ | 1.86
TGLVPLFVDFFVRLFTQLKFGVVQ | 2.71

Variant | protein stability index
TGLVGLFVDFFTRLFTQLKFGVVQ | 2.08
TGLVGLFVDFFCRLFTQLKFGVVQ | 2.71
TGLVGLFVDFFERLFTQLKFGVVQ | 1.96
TGLVGLFVDFFFRLFTQLKFGVVQ | 2.1
TGLVGLFVDFFNRLFTQLKFGVVQ | 1.56
TGLVGLFVDFFRRLFTQLKFGVVQ | 2.04
TGLVGLFVDFFVRLFTQLKFGVVT | 1.6
TGLVGLFVDFFVRLFTQLKFGVVN | 2.55
TGLVGLFVDFFVRLFTQLKFGVVD | 2.46
TGLVGLFVDFFVRLFTQLKFGVVP | 1.88
TGLVGLFVDFFVRLFTQLKFGVVR | 3.77
TGLVGLFVDFFVRLFTQLKFGVVW | 2.36
TGLVGLFVDFFVRLFTQLKFGVVL | 2.14
TGLVGLFVDFFVRLFTQLKFGVVI | 2.66
TGLVGLFVDFFVRPFTQLKFGVVQ | 1.68
TGLVGLFVDFFVRMFTQLKFGVVQ | 2.27
TGLVGLFVDFFVRTFTQLKFGVVQ | 1.99
TGLVGLFVDFFVRSFTQLKFGVVQ | 2.19
TGLVGLFVDFFVRFFTQLKFGVVQ | 2.57
TGLVGLFVDFFVRCFTQLKFGVVQ | 2.1
TGLVGLFVDFFVRLFTQLKFGVRQ | 3.09
TGLVGLFVDFFVRLFTQLKFGVNQ | 2
TGLVGLFVDFFVRLFTQLKFGVWQ | 3.3
TGLVGLFVDFFVRLFTQLKFGVTQ | 2.36
TGLVGLFVDFFVRLFTQLKFGVCQ | 2.78

Variant | protein stability index
TGLVGLFVDFFVRLFTQLKFGVLQ | 2.92
TGLVGLFVDFFVRLFTQLKFGVHQ | 1.81
TGLVGLQVDFFVRLFTQLKFGVVQ | 2.03
TGLVGLAVDFFVRLFTQLKFGVVQ | 2.38
TGLVGLYVDFFVRLFTQLKFGVVQ | 2.54
TGLVGLEVDFFVRLFTQLKFGVVQ | 4.32
TGLVGLNVDFFVRLFTQLKFGVVQ | 1.84
TGLVGLKVDFFVRLFTQLKFGVVQ | 1.78
TGLVGLFHDFFVRLFTQLKFGVVQ | 2.77
TGLVGLFLDFFVRLFTQLKFGVVQ | 3.04
TGLVGLFRDFFVRLFTQLKFGVVQ | 2.25
TGLVGLFFDFFVRLFTQLKFGVVQ | 2.04
TGLVGLFADFFVRLFTQLKFGVVQ | 1.6
TGLVGLFQDFFVRLFTQLKFGVVQ | 2.05
TGLVGLFKDFFVRLFTQLKFGVVQ | 2.04
TGWVGLFVDFFVRLFTQLKFGVVQ | 3.37
TGKVGLFVDFFVRLFTQLKFGVVQ | 3.14
TGMVGLFVDFFVRLFTQLKFGVVQ | 2.73
TGIVGLFVDFFVRLFTQLKFGVVQ | 2.36
TGGVGLFVDFFVRLFTQLKFGVVQ | 1.4
TGDVGLFVDFFVRLFTQLKFGVVQ | 2.07
TGHVGLFVDFFVRLFTQLKFGVVQ | 2.25

Variants of: B2
Test: as above
Settings: c terminus: a fixed tail appended

Variant | protein stability index
RIHTGERPYMCKECGKAFSQNSSI | 2.74
RIHTGERPYMCKECGKAFSQNSSG | 2.8
RIHTGERPYMCKECGKAFSQNSSR | 2.55
RIHTGERPYMCKECGKAFSQNSSN | 3.37
RIHTGERPYMCKECGKAFSQNSSF | 2.48
RIHTGERPYMCKECGKAFSQNSSK | 3.29
RIHTGERPYMCKECGKAFSQNSSS | 3.55
RIHTGERPYMCKECGKAFSQNSSV | 2.6
RIHTGERPYMCKECGKAFSQNSST | 3.43
RIHTGERPYMCKECGKAFSQNSSY | 2.18
RIHTGERPYMCKECGKAFSQNSSW | 2.73
RIHTGERPYMCKECGKAFSQNSSQ | 3.21
RIHTGERPYMCKECGKAFSQNSSH | 3.02
RIHTGERPYMCKECGKAFSQNSSE | 3.68
RIHTGERPYMCKECGKAFSQNSSP | 3.18
RIHTGERPYMCKECGKAFSQNSSM | 2.7
